Consider 5 molecules from patent US20140087995A1 (published 2014).

Numbered stars: 1 amine (or outer) side, 2 acyl side, 3 side chain; on linkers, the order of the positions; unused ones are H or OH. Bridge positions count the residues as written; N and C are the ends. * marks the point of attachment. C20 diacid = O=C(O)CCCCCCCCCCCCCCCCCCC(=O)*; γGlu = O=C(O)[C@H](CCC(=O)[*:2])N[*:1]

The labels stand for the following.
T1: human amylin receptor (human, UniProt P30988 25-474; O60896 24-148, limits assumed)
T1 construct: whole, on cells; Calcitonin receptor plus RAMP-3 gives the amylin 3(a) receptor; membranes of Amylin 3(a)/CRE-luc cells were used; also called hAmylin-R; hAmylinR
T1 sequence (looked up) 1: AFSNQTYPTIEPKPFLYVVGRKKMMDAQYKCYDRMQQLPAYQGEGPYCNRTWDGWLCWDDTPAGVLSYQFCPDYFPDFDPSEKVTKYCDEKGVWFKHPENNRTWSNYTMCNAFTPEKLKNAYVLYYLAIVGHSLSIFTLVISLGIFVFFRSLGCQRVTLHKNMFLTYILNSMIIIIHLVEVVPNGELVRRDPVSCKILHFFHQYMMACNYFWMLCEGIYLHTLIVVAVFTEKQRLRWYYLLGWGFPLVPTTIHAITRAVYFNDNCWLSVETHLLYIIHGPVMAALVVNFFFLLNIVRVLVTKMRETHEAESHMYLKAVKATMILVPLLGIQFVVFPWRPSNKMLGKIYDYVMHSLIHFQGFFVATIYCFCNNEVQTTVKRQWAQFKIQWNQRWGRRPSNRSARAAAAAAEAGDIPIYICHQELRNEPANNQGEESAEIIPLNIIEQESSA
T1 sequence (looked up) 2: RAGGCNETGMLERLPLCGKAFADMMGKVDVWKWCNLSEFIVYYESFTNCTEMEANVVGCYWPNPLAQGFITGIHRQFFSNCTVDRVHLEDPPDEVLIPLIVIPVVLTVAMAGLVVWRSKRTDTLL

B1: N^α1-[(4S)-4-carboxy-4-(19-carboxynonadecanoylamino)butanoyl]-[Arg17,Pro21,Pro27,Pro31,Glu35]-h-amylin (peptide)
peptide: {C20 diacid-γGlu}-KCNTATCATQRLANFLRHSSPNFGAIPSSTPVGSETY-NH2
modifications: disulfide 2-7
SMILES: CC[C@H](C)[C@H](NC(=O)[C@H](C)NC(=O)CNC(=O)[C@H](Cc1ccccc1)NC(=O)[C@H](CC(N)=O)NC(=O)[C@@H]1CCCN1C(=O)[C@H](CO)NC(=O)[C@H](CO)NC(=O)[C@H](Cc1c[nH]cn1)NC(=O)[C@H](CCCNC(=N)N)NC(=O)[C@H](CC(C)C)NC(=O)[C@H](Cc1ccccc1)NC(=O)[C@H](CC(N)=O)NC(=O)[C@H](C)NC(=O)[C@H](CC(C)C)NC(=O)[C@H](CCCNC(=N)N)NC(=O)[C@H](CCC(N)=O)NC(=O)[C@@H](NC(=O)[C@H](C)NC(=O)[C@@H]1CSSC[C@H](NC(=O)[C@H](CCCCN)NC(=O)CC[C@H](NC(=O)CCCCCCCCCCCCCCCCCCC(=O)O)C(=O)O)C(=O)N[C@@H](CC(N)=O)C(=O)N[C@@H]([C@@H](C)O)C(=O)N[C@@H](C)C(=O)N[C@@H]([C@@H](C)O)C(=O)N1)[C@@H](C)O)C(=O)N1CCC[C@H]1C(=O)N[C@@H](CO)C(=O)N[C@@H](CO)C(=O)N[C@H](C(=O)N1CCC[C@H]1C(=O)N[C@H](C(=O)NCC(=O)N[C@@H](CO)C(=O)N[C@@H](CCC(=O)O)C(=O)N[C@H](C(=O)N[C@@H](Cc1ccc(O)cc1)C(N)=O)[C@@H](C)O)C(C)C)[C@@H](C)O
notes: also called 17R, 21P, 27P, 31P, 35E
B2: N^α1-[(4S)-4-carboxy-4-(19-carboxynonadecanoylamino)butanoyl]-[Asp14,Arg17,Pro21,Pro27,Pro37]-h-amylin (peptide)
peptide: {C20 diacid-γGlu}-KCNTATCATQRLADFLRHSSPNFGAIPSSTNVGSNTP-NH2
modifications: disulfide 2-7
SMILES: CC[C@H](C)[C@H](NC(=O)[C@H](C)NC(=O)CNC(=O)[C@H](Cc1ccccc1)NC(=O)[C@H](CC(N)=O)NC(=O)[C@@H]1CCCN1C(=O)[C@H](CO)NC(=O)[C@H](CO)NC(=O)[C@H](Cc1c[nH]cn1)NC(=O)[C@H](CCCNC(=N)N)NC(=O)[C@H](CC(C)C)NC(=O)[C@H](Cc1ccccc1)NC(=O)[C@H](CC(=O)O)NC(=O)[C@H](C)NC(=O)[C@H](CC(C)C)NC(=O)[C@H](CCCNC(=N)N)NC(=O)[C@H](CCC(N)=O)NC(=O)[C@@H](NC(=O)[C@H](C)NC(=O)[C@@H]1CSSC[C@H](NC(=O)[C@H](CCCCN)NC(=O)CC[C@H](NC(=O)CCCCCCCCCCCCCCCCCCC(=O)O)C(=O)O)C(=O)N[C@@H](CC(N)=O)C(=O)N[C@@H]([C@@H](C)O)C(=O)N[C@@H](C)C(=O)N[C@@H]([C@@H](C)O)C(=O)N1)[C@@H](C)O)C(=O)N1CCC[C@H]1C(=O)N[C@@H](CO)C(=O)N[C@@H](CO)C(=O)N[C@H](C(=O)N[C@@H](CC(N)=O)C(=O)N[C@H](C(=O)NCC(=O)N[C@@H](CO)C(=O)N[C@@H](CC(N)=O)C(=O)N[C@H](C(=O)N1CCC[C@H]1C(N)=O)[C@@H](C)O)C(C)C)[C@@H](C)O
notes: also called 14D, 17R, 21P, 27P, 37P
B3: N^α1-[(4S)-4-carboxy-4-(19-carboxynonadecanoylamino)butanoyl]-[Glu14,Arg17,Pro21,Pro27,Asp35,Pro37]-h-amylin (peptide)
peptide: {C20 diacid-γGlu}-KCNTATCATQRLAEFLRHSSPNFGAIPSSTNVGSDTP-NH2
modifications: disulfide 2-7
SMILES: CC[C@H](C)[C@H](NC(=O)[C@H](C)NC(=O)CNC(=O)[C@H](Cc1ccccc1)NC(=O)[C@H](CC(N)=O)NC(=O)[C@@H]1CCCN1C(=O)[C@H](CO)NC(=O)[C@H](CO)NC(=O)[C@H](Cc1c[nH]cn1)NC(=O)[C@H](CCCNC(=N)N)NC(=O)[C@H](CC(C)C)NC(=O)[C@H](Cc1ccccc1)NC(=O)[C@H](CCC(=O)O)NC(=O)[C@H](C)NC(=O)[C@H](CC(C)C)NC(=O)[C@H](CCCNC(=N)N)NC(=O)[C@H](CCC(N)=O)NC(=O)[C@@H](NC(=O)[C@H](C)NC(=O)[C@@H]1CSSC[C@H](NC(=O)[C@H](CCCCN)NC(=O)CC[C@H](NC(=O)CCCCCCCCCCCCCCCCCCC(=O)O)C(=O)O)C(=O)N[C@@H](CC(N)=O)C(=O)N[C@@H]([C@@H](C)O)C(=O)N[C@@H](C)C(=O)N[C@@H]([C@@H](C)O)C(=O)N1)[C@@H](C)O)C(=O)N1CCC[C@H]1C(=O)N[C@@H](CO)C(=O)N[C@@H](CO)C(=O)N[C@H](C(=O)N[C@@H](CC(N)=O)C(=O)N[C@H](C(=O)NCC(=O)N[C@@H](CO)C(=O)N[C@@H](CC(=O)O)C(=O)N[C@H](C(=O)N1CCC[C@H]1C(N)=O)[C@@H](C)O)C(C)C)[C@@H](C)O
notes: also called 14E, 17R, 21P, 27P, 35D, 37P
B4: N^α1-[(4S)-4-carboxy-4-(19-carboxynonadecanoylamino)butanoyl]-[Arg17,Pro21,Pro27,Pro34,Glu35]-h-amylin (peptide)
peptide: {C20 diacid-γGlu}-KCNTATCATQRLANFLRHSSPNFGAIPSSTNVGPETY-NH2
modifications: disulfide 2-7
SMILES: CC[C@H](C)[C@H](NC(=O)[C@H](C)NC(=O)CNC(=O)[C@H](Cc1ccccc1)NC(=O)[C@H](CC(N)=O)NC(=O)[C@@H]1CCCN1C(=O)[C@H](CO)NC(=O)[C@H](CO)NC(=O)[C@H](Cc1c[nH]cn1)NC(=O)[C@H](CCCNC(=N)N)NC(=O)[C@H](CC(C)C)NC(=O)[C@H](Cc1ccccc1)NC(=O)[C@H](CC(N)=O)NC(=O)[C@H](C)NC(=O)[C@H](CC(C)C)NC(=O)[C@H](CCCNC(=N)N)NC(=O)[C@H](CCC(N)=O)NC(=O)[C@@H](NC(=O)[C@H](C)NC(=O)[C@@H]1CSSC[C@H](NC(=O)[C@H](CCCCN)NC(=O)CC[C@H](NC(=O)CCCCCCCCCCCCCCCCCCC(=O)O)C(=O)O)C(=O)N[C@@H](CC(N)=O)C(=O)N[C@@H]([C@@H](C)O)C(=O)N[C@@H](C)C(=O)N[C@@H]([C@@H](C)O)C(=O)N1)[C@@H](C)O)C(=O)N1CCC[C@H]1C(=O)N[C@@H](CO)C(=O)N[C@@H](CO)C(=O)N[C@H](C(=O)N[C@@H](CC(N)=O)C(=O)N[C@H](C(=O)NCC(=O)N1CCC[C@H]1C(=O)N[C@@H](CCC(=O)O)C(=O)N[C@H](C(=O)N[C@@H](Cc1ccc(O)cc1)C(N)=O)[C@@H](C)O)C(C)C)[C@@H](C)O
notes: also called 17R, 21P, 27P, 34P, 35E
B5: N^α1-[(4S)-4-carboxy-4-(19-carboxynonadecanoylamino)butanoyl]-[Glu14,Arg17,Pro21,Pro26]-h-amylin (peptide)
peptide: {C20 diacid-γGlu}-KCNTATCATQRLAEFLRHSSPNFGAPLSSTNVGSNTY-NH2
modifications: disulfide 2-7
SMILES: CC(C)C[C@H](NC(=O)[C@H](CCCNC(=N)N)NC(=O)[C@H](CCC(N)=O)NC(=O)[C@@H](NC(=O)[C@H](C)NC(=O)[C@@H]1CSSC[C@H](NC(=O)[C@H](CCCCN)NC(=O)CC[C@H](NC(=O)CCCCCCCCCCCCCCCCCCC(=O)O)C(=O)O)C(=O)N[C@@H](CC(N)=O)C(=O)N[C@@H]([C@@H](C)O)C(=O)N[C@@H](C)C(=O)N[C@@H]([C@@H](C)O)C(=O)N1)[C@@H](C)O)C(=O)N[C@@H](C)C(=O)N[C@@H](CCC(=O)O)C(=O)N[C@@H](Cc1ccccc1)C(=O)N[C@@H](CC(C)C)C(=O)N[C@@H](CCCNC(=N)N)C(=O)N[C@@H](Cc1c[nH]cn1)C(=O)N[C@@H](CO)C(=O)N[C@@H](CO)C(=O)N1CCC[C@H]1C(=O)N[C@@H](CC(N)=O)C(=O)N[C@@H](Cc1ccccc1)C(=O)NCC(=O)N[C@@H](C)C(=O)N1CCC[C@H]1C(=O)N[C@@H](CC(C)C)C(=O)N[C@@H](CO)C(=O)N[C@@H](CO)C(=O)N[C@H](C(=O)N[C@@H](CC(N)=O)C(=O)N[C@H](C(=O)NCC(=O)N[C@@H](CO)C(=O)N[C@@H](CC(N)=O)C(=O)N[C@H](C(=O)N[C@@H](Cc1ccc(O)cc1)C(N)=O)[C@@H](C)O)C(C)C)[C@@H](C)O
notes: also called 14E, 17R, 21P, 26P

The target of the assay is T1, human amylin receptor. The experiment in a line: SPA competition binding, displacement of 125I-rat amylin from membranes with human amylin 3(a) receptor (Assay V). On the procedure:
The binding assay was performed using scintillation proximity assay (SPA) beads (RPNQ0001) from PerkinElmer and cell membranes from the Amylin 3(a)/CRE-luc cells (as described in Assay (II)) were used. Membranes were prepared in the following way; the cells were rinsed with PBS and incubated with Versene for approximately 5 min before harvesting. The cells were flushed with PBS and the cell-suspension was centrifuged for 5 min at 1000 rpm. Cells were homogenized (ultrathurrax) in a buffer containing 20 mM Na-HEPES and 10 mM EDTA (pH 7.4) and centrifuged at 20.000 rpm for 15 min. The resulting pellet was resuspended, homogenized and centrifuged (20.000 rpm, 15 min) in a buffer containing 20 mM Na-HEPES and 0.1 mM EDTA (pH 7.4, buffer 2). The resulting pellet was resuspended in buffer 2 and protein concentration was measured (BCA protein Assay, Pierce). The homogenate was kept cold during the whole procedure. The membranes were kept at −80° C. until use. The assay was performed in a 384 well Optiplate (PerkinElmer) in a total volume of 40 ul. Membranes were mixed with SPA beads. Final concentration of membranes 35 ng/μL final and SPA beads was 0.05 mg/well. Test-compounds were dissolved in DMSO and further diluted in assay buffer (50 mM Hepes, pH 7.4, 1 mM CaCl2, 5 mM MgCl₂, 0.1% OA and 0.02% Tween20). […] The final mixture was incubated with shaking at 400 rpm for 120 min at 25° C. prior to centrifugation (1500 rpm, 10 min). Samples were analyzed on TopCounter™ (Packard). The IC₅₀ was calculated using (one site binding competition analysis) GraphPad Prism5 as a measure of receptor affinity.
In general terms: In a radioligand displacement assay an active substance lowers the binding of a labelled ligand.
Consider B1, for which the half-inhibitory concentration (IC50) was found to be 0.61 nM. This lies in the sub-nanomolar range.

In the case of B2, the half-inhibitory concentration (IC50) is 0.082 nM.

Molecule B3 came in with an IC50 of 0.105 nM.

B4 gave an IC50 of 0.577 nM.

B5 came in with an IC50 of 0.674 nM.

Usually IC50 stands for the concentration at which inhibition is half-maximal.
